Bridges are numbered along the chain shown (N, C = ends). Where no end group is shown, it is not given here.
Assays:
[1] = target: T1, PepF (Bacillus subtilis, UniProt O31605); settings: mature lasso peptide incubated with purified PepF 8 hours at 37°C, compared with non-peptidase-treated
T1 sequence (O31605 whole entry, looked up): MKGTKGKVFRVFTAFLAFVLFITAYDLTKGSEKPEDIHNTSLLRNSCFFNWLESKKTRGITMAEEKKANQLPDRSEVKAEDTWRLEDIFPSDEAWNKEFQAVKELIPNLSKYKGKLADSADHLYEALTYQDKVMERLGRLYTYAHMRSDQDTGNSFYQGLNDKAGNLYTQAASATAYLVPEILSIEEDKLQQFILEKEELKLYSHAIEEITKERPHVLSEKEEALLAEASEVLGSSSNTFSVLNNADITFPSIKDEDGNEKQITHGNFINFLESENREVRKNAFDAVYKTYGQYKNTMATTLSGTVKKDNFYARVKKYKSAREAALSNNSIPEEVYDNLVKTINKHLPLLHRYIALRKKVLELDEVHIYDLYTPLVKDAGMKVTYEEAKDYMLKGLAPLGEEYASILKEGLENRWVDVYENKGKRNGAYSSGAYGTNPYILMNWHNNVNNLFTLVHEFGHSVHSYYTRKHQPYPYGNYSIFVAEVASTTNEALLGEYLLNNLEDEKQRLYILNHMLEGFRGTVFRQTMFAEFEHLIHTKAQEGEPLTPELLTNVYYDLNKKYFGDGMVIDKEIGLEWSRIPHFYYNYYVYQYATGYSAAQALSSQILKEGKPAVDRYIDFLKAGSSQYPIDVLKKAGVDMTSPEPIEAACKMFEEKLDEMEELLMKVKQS
Protocol: (§1) To examine the degradation effect of these three peptidases on the lasso peptide MccJ25, we performed the enzymatic (proteolytic treatment) reaction of MccJ25 with each peptidase enzyme for 8 hours at 37°C and measured the antibacterial activity and concentration of MccJ25 in the incubation products.
(§2) To investigate whether B. subtilis peptidases play an inhibitory role in the maturation of MccJ25, we synthesized a linear peptide chain consisting of 21 amino acid residues for mimicking the MccJ25 precursor peptide. The linear peptide was incubated with PepA, PepF, and PepT, and the effects of degradation of these three peptidases on the MccJ25 precursor peptide were determined.
(§3) The MccJ25 lasso peptide was obtained by a reverse-phase solid-phase extraction method, as described in previous studies ([15]). The MccJ25 lasso peptide was examined by antimicrobial activity analysis and UPLC-QqQ mass spectrometry analysis. The antibacterial activity analysis method and UPLC-QqQ mass spectrometry analysis process for MccJ25 have been described in detail in our previous articles ([21]). […] Quantitative analysis of the MccJ25 linear/lasso peptide was performed by ultra-performance liquid chromatography coupled with triple quadrupole mass spectrometry (UPLC-QqQ, Agilent Co., USA) in the positive ion mode. All original images of SDS-PAGE and spot-on-lawn were cropped and brightness adjusted using Fireworks software (Vesion CS 6, Adobe Systems Incorporated).
(§4) The strains BL21A (BL21-DE3, pET28a-PepA), BL21F (BL21-DE3, pET28a-PepF), and BL21T (BL21-DE3, pET28a-PepT) were used to produce the peptidases PepA, PepF, and PepT, respectively, and BL21O (BL21-DE3, pET28a+) was used as a control strain. […] L-leucine-p-nitroanilide was used as the standard chromogenic substrate for aminopeptidases to identify whether these three peptidases are aminopeptidases in B. subtilis. The mixture of peptidase (10%) and L-leucine-p- nitroanilide (1 mM) was reacted in Tris-HCl buffer solution at pH = 8.5 and 50°C for 10 minutes.

[2] = target: PepA (Bacillus subtilis, UniProt O32106); settings: 8 hours at 37°C, data not shown
Chain of PepA (O32106 whole entry): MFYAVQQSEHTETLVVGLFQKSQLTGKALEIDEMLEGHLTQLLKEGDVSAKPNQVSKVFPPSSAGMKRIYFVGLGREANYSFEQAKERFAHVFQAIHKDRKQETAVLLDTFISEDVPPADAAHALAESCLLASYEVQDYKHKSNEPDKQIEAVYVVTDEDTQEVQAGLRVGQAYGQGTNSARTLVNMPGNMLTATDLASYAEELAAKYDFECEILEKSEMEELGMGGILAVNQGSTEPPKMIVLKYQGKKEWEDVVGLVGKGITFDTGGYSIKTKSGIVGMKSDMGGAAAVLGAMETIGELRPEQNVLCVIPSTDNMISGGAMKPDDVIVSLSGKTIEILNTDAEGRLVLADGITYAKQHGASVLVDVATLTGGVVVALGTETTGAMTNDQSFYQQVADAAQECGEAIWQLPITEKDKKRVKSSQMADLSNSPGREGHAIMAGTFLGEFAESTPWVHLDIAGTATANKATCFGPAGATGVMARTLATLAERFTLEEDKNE
Protocol: as §1, §2, §3, §4

[3] = target: PepT (Bacillus subtilis, UniProt P55179); settings: 8 hours at 37°C, data not shown
Chain of PepT (P55179 whole entry): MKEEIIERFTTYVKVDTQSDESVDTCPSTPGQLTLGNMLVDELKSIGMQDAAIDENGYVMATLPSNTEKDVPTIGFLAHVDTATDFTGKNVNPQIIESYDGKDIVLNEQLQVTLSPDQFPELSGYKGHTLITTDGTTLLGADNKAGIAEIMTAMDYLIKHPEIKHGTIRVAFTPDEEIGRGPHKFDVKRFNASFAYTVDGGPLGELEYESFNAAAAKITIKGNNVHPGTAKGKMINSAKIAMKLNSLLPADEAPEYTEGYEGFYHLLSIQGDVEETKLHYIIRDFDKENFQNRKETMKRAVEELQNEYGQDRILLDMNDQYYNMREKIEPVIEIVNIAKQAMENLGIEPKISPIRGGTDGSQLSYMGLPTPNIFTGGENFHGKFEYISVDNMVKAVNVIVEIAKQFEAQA
Protocol: as §1, §2, §3, §4

[4] = tested on: proteases (including peptidases); settings: cited from earlier work
Description: Peptidases are important tools in the growth and metabolism of various organisms, including B. subtilis, and they are classified as exopeptidases and endopeptidases depending on the position of peptide bond cleavage ([22]). Different classes of peptidases are associated with important biological pathways. Based on similarity, PepA (yuiE) is predicted to be an aminopeptidase in B. subtilis, but its exact function has not been studied. In E. coli, PepA is a well-defined leucyl aminopeptidase with cysteinyl–glycinase activity, which involves glutathione turnover ([23]). Since glutathione is absen ...

[5] = at the highest concentration required to inhibit bacterial growth; cited from earlier work
Description: Microcins are antimicrobial peptides synthesized by ribosomes and are produced by some Enterobacteriaceae species under the condition of nutrient depletion to kill or inhibit neighboring competitors ([1], [2]). Microcins are divided into two categories, namely, class I and class II, according to their molecular masses. Class I microcins have mass less than 5 kDa, while that of class II microcins is between 5 and 10 kDa ([1]). Microcin J25 (MccJ25) is a class I microcin with a unique lasso-like structure ([3][–][5]) that inhibits or kills target bacteria (primarily Gram-negative Enterobacteriac ...

[6] = spot-on-lawn assay, S. enteritidis CVCC3377

## microcin J25 (GGAGHVPEYFVGIGTPISFYG; lactam N-8 (inferred); UniProt Q9X2V7 38-58, looked up) [MccJ25, lasso peptide, class I microcin of 21 amino acid residues: eight-residue cycle and thirteen-residue tail threading through the macrolactam ring]
[1]; UPLC-QqQ-MS
  concentration of MccJ25 after treatment with PepF: unchanged
[1]; spot-on-lawn assay, indicator S. enteritidis CVCC3377
  antibacterial activity of MccJ25 after treatment with PepF: unchanged
[2]; UPLC-QqQ-MS
  concentration of mature MccJ25 after treatment with PepA: remained unchanged
[2]; [6]
  antibacterial activity of mature MccJ25 after treatment with PepA: remained unchanged
[3]; UPLC-QqQ-MS
  concentration of mature MccJ25 after treatment with PepT: remained unchanged
[3]; [6]
  antibacterial activity of mature MccJ25 after treatment with PepT: remained unchanged
[4]
  resistance to proteases (including peptidases): high resistance
[5]
  toxicity and hemolysis: neither toxic nor hemolytic

Source: paper PMC11218540, “Influence of PepF peptidase and sporulation on microcin J25 production in Bacillus subtilis” (Microbiology Spectrum, 2024)
